From PMC10397247

Tests used:
[1] = target: T1, 4H1359-bN; experiment: two-hybrid library CCNG1;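 further: natural log of median RNA to DNA barcode read ratio; higher means stronger binding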
T1 chain: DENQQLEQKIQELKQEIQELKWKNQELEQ

[2] = target: T2, 4H1393-bN; experiment: two-hybrid library CCNG1;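 further: natural log of median RNA to DNA barcode read ratio; higher means stronger binding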
T2 chain: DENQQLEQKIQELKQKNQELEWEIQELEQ

[3] = target: T3, 4H1449-bN; experiment: two-hybrid library CCNG1;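 further: natural log of median RNA to DNA barcode read ratio; higher means stronger binding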
T3 chain: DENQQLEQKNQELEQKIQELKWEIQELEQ

[4] = target: T4, 4H1629-bN; experiment: two-hybrid library CCNG1;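 further: natural log of median RNA to DNA barcode read ratio; higher means stronger binding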
T4 chain: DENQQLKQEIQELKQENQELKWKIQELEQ

[5] = target: T5, 4H1710-bN; experiment: two-hybrid library CCNG1
T5 chain: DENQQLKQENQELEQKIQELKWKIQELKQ

[6] = target: T6, 4H1804-bN; experiment: two-hybrid library CCNG1
T6 chain: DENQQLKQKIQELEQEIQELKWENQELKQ

[7] = target: T7, 4H1985-bN; experiment: two-hybrid library CCNG1
T7 chain: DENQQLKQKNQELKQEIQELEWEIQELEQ

[8] = target: T8, 4H3129-bN; experiment: two-hybrid library CCNG1
T8 chain: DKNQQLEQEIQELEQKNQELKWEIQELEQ

[9] = target: T9, 4H3172-bN; experiment: two-hybrid library CCNG1
T9 chain: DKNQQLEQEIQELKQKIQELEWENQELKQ

[10] = target: T10, 4H3414-bN; experiment: two-hybrid library CCNG1
T10 chain: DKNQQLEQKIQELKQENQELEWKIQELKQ

[11] = target: T11, 4H3631-bN; experiment: two-hybrid library CCNG1
T11 chain: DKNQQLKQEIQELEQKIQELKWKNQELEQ

[12] = target: T12, 4H3638-bN; experiment: two-hybrid library CCNG1
T12 chain: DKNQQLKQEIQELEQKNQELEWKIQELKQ

[13] = target: T13, 4H3817-bN; experiment: two-hybrid library CCNG1
T13 chain: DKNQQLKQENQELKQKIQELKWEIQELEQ

[14] = target: T14, 4H3974-bN; experiment: two-hybrid library CCNG1
T14 chain: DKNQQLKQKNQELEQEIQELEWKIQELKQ

[15] = target: T15, 4H56-bN; experiment: two-hybrid library CCNG1
T15 chain: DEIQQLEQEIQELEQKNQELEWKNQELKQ

[16] = target: T16, 4H570-bN; experiment: two-hybrid library CCNG1
T16 chain: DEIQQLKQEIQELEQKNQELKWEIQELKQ

[17] = target: T17, 4H584-bN; experiment: two-hybrid library CCNG1
T17 chain: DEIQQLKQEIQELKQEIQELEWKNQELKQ

[18] = target: T18, 4H619-bN; experiment: two-hybrid library CCNG1
T18 chain: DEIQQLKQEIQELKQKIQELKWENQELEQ

[19] = target: T19, 4H850-bN; experiment: two-hybrid library CCNG1
T19 chain: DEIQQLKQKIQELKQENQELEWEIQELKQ

[20] = target: T20, 4H906-bN; experiment: two-hybrid library CCNG1
T20 chain: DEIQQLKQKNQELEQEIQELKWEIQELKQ

[21] = target: T21, P11; experiment: two-hybrid library CC1
T21 chain: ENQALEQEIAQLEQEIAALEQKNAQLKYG

[22] = target: T22, P12; experiment: two-hybrid library CC1; conditions: mean of both orientations
T22 chain: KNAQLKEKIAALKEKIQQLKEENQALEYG

[23] = target: T23, P3; experiment: two-hybrid library CC1; conditions: mean of both orientations
T23 chain: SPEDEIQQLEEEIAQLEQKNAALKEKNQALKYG

[24] = target: T24, P3mS; experiment: two-hybrid library CC1; conditions: mean of both orientations
T24 chain: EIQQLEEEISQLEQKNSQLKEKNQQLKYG

[25] = target: T25, P4; experiment: two-hybrid library CC1; conditions: mean of both orientations
T25 chain: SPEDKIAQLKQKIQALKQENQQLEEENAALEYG

[26] = target: T26, P4mS; experiment: two-hybrid library CC1; conditions: mean of both orientations
T26 chain: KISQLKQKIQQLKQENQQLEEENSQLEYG

[27] = target: T27, P5SC1; experiment: two-hybrid library CC1; conditions: mean of both orientations
T27 chain: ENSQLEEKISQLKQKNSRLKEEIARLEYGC

[28] = target: T28, P5SC2; experiment: two-hybrid library CC1; conditions: mean of both orientations
T28 chain: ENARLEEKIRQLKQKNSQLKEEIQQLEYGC

[29] = target: T29, P5; experiment: two-hybrid library CC1; conditions: mean of both orientations
T29 chain: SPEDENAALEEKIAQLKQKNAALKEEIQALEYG

[30] = target: T30, P5mS; experiment: two-hybrid library CC1; conditions: mean of both orientations
T30 chain: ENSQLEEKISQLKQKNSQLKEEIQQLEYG

[31] = target: T31, P6SC1; experiment: two-hybrid library CC1; conditions: mean of both orientations
T31 chain: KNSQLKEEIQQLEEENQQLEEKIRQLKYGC

[32] = target: T32, P6SC2; experiment: two-hybrid library CC1; conditions: mean of both orientations
T32 chain: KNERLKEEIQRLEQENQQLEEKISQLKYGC

[33] = target: T33, P6; experiment: two-hybrid library CC1; conditions: mean of both orientations
T33 chain: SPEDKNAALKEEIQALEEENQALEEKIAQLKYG

[34] = target: T34, P6mS; experiment: two-hybrid library CC1; conditions: mean of both orientations
T34 chain: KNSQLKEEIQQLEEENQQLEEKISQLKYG

[35] = target: T35, P7; experiment: two-hybrid library CC1; conditions: mean of both orientations
T35 chain: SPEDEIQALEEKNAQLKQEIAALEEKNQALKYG

[36] = target: T36, P7mS; experiment: two-hybrid library CC1; conditions: mean of both orientations
T36 chain: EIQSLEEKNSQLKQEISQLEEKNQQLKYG

[37] = target: T37, P8; experiment: two-hybrid library CC1; conditions: mean of both orientations
T37 chain: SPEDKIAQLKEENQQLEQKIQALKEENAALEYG

[38] = target: T38, P8mS; experiment: two-hybrid library CC1; conditions: mean of both orientations
T38 chain: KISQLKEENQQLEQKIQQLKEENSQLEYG

[39] = target: T39, P9; experiment: two-hybrid library CC1; conditions: mean of both orientations
T39 chain: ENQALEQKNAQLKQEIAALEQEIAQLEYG

[40] = target: T40, 4H2696-bA; experiment: two-hybrid library CCNG1
T40 chain: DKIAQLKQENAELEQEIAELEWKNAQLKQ

[41] = target: T41, 4H2883-bA; experiment: two-hybrid library CCNG1
T41 chain: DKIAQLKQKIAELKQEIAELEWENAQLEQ

[42] = target: T42, 4H2937-bA; experiment: two-hybrid library CCNG1
T42 chain: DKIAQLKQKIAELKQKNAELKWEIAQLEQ

[43] = target: T43, 4H2944-bA; experiment: two-hybrid library CCNG1
T43 chain: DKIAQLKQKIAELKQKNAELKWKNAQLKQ

[44] = target: T44, 4H342-bA; experiment: two-hybrid library CCNG1
T44 chain: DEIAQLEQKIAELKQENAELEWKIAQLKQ

[45] = target: T45, 4H48-bA; experiment: two-hybrid library CCNG1
T45 chain: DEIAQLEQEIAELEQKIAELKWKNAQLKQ

[46] = target: T46, 4H491-bA; experiment: two-hybrid library CCNG1
T46 chain: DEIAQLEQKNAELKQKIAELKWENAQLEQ

[47] = target: T47, 4H182-bN; experiment: two-hybrid library CCNG1
T47 chain: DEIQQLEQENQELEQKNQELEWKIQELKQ

[48] = target: T48, 4H2134-bN; experiment: two-hybrid library CCNG1
T48 chain: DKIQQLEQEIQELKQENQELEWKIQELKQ

[49] = target: T49, 4H2143-bN; experiment: two-hybrid library CCNG1
T49 chain: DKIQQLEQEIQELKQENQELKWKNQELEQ

[50] = target: T50, 4H2223-bN; experiment: two-hybrid library CCNG1
T50 chain: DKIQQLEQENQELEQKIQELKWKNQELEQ

[51] = target: T51, 4H2438-bN; experiment: two-hybrid library CCNG1
T51 chain: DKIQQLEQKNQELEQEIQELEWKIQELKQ

[52] = target: T52, 4H2473-bN; experiment: two-hybrid library CCNG1
T52 chain: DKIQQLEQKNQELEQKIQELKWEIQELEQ

[53] = target: T53, 4H2503-bN; experiment: two-hybrid library CCNG1
T53 chain: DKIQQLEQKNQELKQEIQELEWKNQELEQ

[54] = target: T54, 4H2588-bN; experiment: two-hybrid library CCNG1
T54 chain: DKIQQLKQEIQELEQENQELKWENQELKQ

[55] = target: T55, 4H2692-bN; experiment: two-hybrid library CCNG1
T55 chain: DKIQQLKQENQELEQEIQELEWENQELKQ

[56] = target: T56, 4H2717-bN; experiment: two-hybrid library CCNG1
T56 chain: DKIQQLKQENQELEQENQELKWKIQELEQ

[57] = target: T57, 4H2839-bN; experiment: two-hybrid library CCNG1
T57 chain: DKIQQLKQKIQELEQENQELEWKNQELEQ

[58] = target: T58, 4H2915-bN; experiment: two-hybrid library CCNG1
T58 chain: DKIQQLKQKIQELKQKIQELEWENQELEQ

[59] = target: T59, 4H3057-bN; experiment: two-hybrid library CCNG1
T59 chain: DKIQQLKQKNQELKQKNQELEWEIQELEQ

[60] = target: T60, 4H319-bN; experiment: two-hybrid library CCNG1
T60 chain: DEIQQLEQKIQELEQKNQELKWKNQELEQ

[61] = target: T61, 4H3277-bN; experiment: two-hybrid library CCNG1
T61 chain: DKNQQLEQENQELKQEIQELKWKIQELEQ

[62] = target: T62, 4H348-bN; experiment: two-hybrid library CCNG1
T62 chain: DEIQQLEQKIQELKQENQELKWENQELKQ

[63] = target: T63, 4H40-bN; experiment: two-hybrid library CCNG1
T63 chain: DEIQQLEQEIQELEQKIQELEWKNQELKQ

[64] = target: T64, 4H462-bN; experiment: two-hybrid library CCNG1
T64 chain: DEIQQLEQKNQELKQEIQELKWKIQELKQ

[65] = target: T65, 4H477-bN; experiment: two-hybrid library CCNG1
T65 chain: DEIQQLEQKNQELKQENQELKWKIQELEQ

[66] = target: T66, 4H492-bN; experiment: two-hybrid library CCNG1
T66 chain: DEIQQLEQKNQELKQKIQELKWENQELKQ

[67] = target: T67, 4H575-bA; experiment: two-hybrid library CCNG1
T67 chain: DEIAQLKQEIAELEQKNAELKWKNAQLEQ

[68] = target: T68, 4H741-bN; experiment: two-hybrid library CCNG1
T68 chain: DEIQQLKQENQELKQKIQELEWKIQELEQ

[69] = target: T69, 4H908-bN; experiment: two-hybrid library CCNG1
T69 chain: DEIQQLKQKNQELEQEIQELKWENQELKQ

Binder: DENQQLEQKIQELKQEIQELKWKNQELEQ [4H1359-bN]
- interaction score [1]: -0.688
- interaction score [2]: -0.209
- interaction score [3]: -0.317
- interaction score [4]: -1.24
- interaction score [5]: -0.607
- interaction score [6]: 0.796
- interaction score [7]: -0.294
- interaction score [8]: -0.57
- interaction score [9]: 0.294
- interaction score [10]: -0.131
- interaction score [11]: 0.911
- interaction score [12]: -1.64
- interaction score [13]: -1.14
- interaction score [14]: 1.47
- interaction score [15]: -1.25
- interaction score [16]: -0.803
- interaction score [17]: -0.701
- interaction score [18]: -1.38
- interaction score [19]: -0.294
- interaction score [20]: -1.22

Binder: ENQALEQEIAQLEQEIAALEQKNAQLKYG [P11]
- interaction score [21]: -2.71
- interaction score [22]: 0.313
- interaction score [23]: -2.69
- interaction score [24]: -2.8
- interaction score [25]: -0.75
- interaction score [26]: -1.07
- interaction score [27]: -2.59
- interaction score [28]: -2.41
- interaction score [29]: -2.7
- interaction score [30]: -2.74
- interaction score [31]: -2.75
- interaction score [32]: -2.64
- interaction score [33]: -2.83
- interaction score [34]: -2.82
- interaction score [35]: -2.69
- interaction score [36]: -2.62
- interaction score [37]: -2.59
- interaction score [38]: -2.69
- interaction score [39]: -2.25

Binder: DKIAQLKQENAELEQEIAELEWKNAQLKQ [4H2696-bA]
- interaction score [40]: -0.668
- interaction score [41]: 0.674
- interaction score [42]: 0.659
- interaction score [43]: 0.173
- interaction score [44]: -0.319
- interaction score [45]: -0.267
- interaction score [46]: 1.93

Binder: DEIQQLEQENQELEQKNQELEWKIQELKQ [4H182-bN]
- interaction score [47]: -0.13
- interaction score [48]: -0.568
- interaction score [49]: -0.437
- interaction score [50]: -0.0217
- interaction score [51]: -0.143
- interaction score [52]: -0.481
- interaction score [53]: -0.284
- interaction score [54]: -0.916
- interaction score [55]: 0.536
- interaction score [56]: 0.137
- interaction score [57]: 0.367
- interaction score [58]: 0.186
- interaction score [59]: 2.24
- interaction score [60]: -0.552
- interaction score [61]: -0.0991
- interaction score [62]: -0.689
- interaction score [63]: 0.0984
- interaction score [64]: -0.134
- interaction score [65]: -1.61
- interaction score [66]: 0.471
- interaction score [67]: -2.96
- interaction score [68]: -0.228
- interaction score [69]: -2.24
